B1: recombinant CNA_(31–344), N1N2 subdomains of the A region of the Staphylococcus aureus collagen-binding protein Cna (domain or fragment)
chain: RDISSTNVTDLTVSPSKIEDGGKTTVKMTFDDKNGKIQNGDMIKVAWPTSGTVKIEGYSKTVPLTVKGEQVGQAVITPDGATITFNDKVEKLSDVSGFAEFEVQGRNLTQTNTSDDKVATITSGNKSTNVTVHKSEAGTSSVFYYKTGDMLPEDTTHVRWFLNINNEKSYVSKDITIKDQIQGGQQLDLSTLNINVTGTHSNYYSGQSAITDFEKAFPGSKITVDNTKNTIDVTIPQGYGSYNSFSINYKTKITNEQQKEFVNNSQAWYQEHGKEEVNGKSFNHTVHNINANAGIEGTVKGELKVLKQDKDTKA
notes: Collagen adhesin Cna of S. aureus FDA 574, residues 31 to 344 (predicted N1N2 subdomains of the A region); In the assay it was coupled covalently to the AFM tip (PEG-benzaldehyde linker) or to the substrate (NHS chemistry); source: recombinant, cloned into plasmid pQE30, purified

Columns and labels:
[1] = biological target: type II collagen purified from bovine nasal septum (bovine) (UniProt P02459); assay: single-cell force spectroscopy (AFM); a single living Cna^(+) S. aureus Phillips bacterium on a colloidal probe cantilever against a Cn substrate (NHS chemistry); PBS, 20°C; contact time 100 ms, 250 pN, 1,000 nm s^-1; Cna^(−) cells as control
Chain of type II collagen purified from bovine nasal septum (bovine) (P02459 182-1241): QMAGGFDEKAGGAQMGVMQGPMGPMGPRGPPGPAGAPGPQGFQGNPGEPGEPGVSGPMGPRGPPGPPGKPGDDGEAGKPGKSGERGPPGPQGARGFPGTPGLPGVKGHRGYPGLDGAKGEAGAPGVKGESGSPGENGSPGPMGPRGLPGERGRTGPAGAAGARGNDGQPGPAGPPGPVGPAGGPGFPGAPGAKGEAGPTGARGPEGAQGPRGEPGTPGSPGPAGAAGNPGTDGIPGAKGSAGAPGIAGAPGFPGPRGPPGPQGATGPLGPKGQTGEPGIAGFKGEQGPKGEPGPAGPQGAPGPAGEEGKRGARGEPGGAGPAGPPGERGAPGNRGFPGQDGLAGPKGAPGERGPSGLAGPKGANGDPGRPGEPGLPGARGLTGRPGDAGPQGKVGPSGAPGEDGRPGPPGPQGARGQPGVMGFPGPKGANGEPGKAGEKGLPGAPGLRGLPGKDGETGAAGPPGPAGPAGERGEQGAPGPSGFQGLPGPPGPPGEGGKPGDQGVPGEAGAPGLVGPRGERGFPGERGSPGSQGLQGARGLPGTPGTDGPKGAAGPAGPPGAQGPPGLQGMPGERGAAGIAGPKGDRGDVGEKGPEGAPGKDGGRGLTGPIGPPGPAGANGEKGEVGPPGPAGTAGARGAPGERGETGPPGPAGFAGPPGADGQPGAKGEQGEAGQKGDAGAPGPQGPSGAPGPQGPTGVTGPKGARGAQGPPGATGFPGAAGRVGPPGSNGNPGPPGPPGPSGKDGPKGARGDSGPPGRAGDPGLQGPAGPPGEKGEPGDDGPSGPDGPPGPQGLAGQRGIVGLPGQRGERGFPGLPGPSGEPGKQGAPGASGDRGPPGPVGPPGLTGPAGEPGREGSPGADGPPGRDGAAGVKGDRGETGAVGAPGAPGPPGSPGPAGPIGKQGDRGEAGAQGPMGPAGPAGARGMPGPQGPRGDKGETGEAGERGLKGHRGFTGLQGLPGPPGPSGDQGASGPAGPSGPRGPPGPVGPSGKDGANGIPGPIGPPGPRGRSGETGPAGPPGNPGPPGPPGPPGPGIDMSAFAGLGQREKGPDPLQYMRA

[2] = biological target: type II collagen purified from bovine nasal septum (bovine) (UniProt P02459); assay: single-molecule force spectroscopy (AFM); Cn tips (NHS chemistry) on living Cna^(+) S. aureus Phillips bacteria trapped in porous membranes; PBS, 20°C; contact time 100 ms, 250 pN, 1,000 nm s^-1; Cna^(−) cells and 9G7 MAb (10 µg/ml) as controls
[3] = biological target: T1, type II collagen purified from bovine nasal septum (bovine, UniProt P02459 182-1241); assay: single-molecule force spectroscopy (AFM); inverse configuration: Cn on the tip and CNA_(31–344) on the substrate, both by NHS chemistry; PBS, 20°C; contact time 250 ms, 250 pN, 1,000 nm s^-1 (retraction speed varied for koff); 6 tips and substrates; conditions: both partners purified
T1 construct: Collagen type II, bovine, purified from nasal septum; collagen alpha-1(II) chain; Attached to gold-coated tips or substrates by NHS/EDC chemistry, or coated on microtiter wells; also called Cn; type II Cn; source: purified from bovine nasal septum (as described by Strawich and Nimni)
T1 sequence (P02459 182-1241): as above

[4] = biological target: T1, type II collagen purified from bovine …; assay: single-molecule force spectroscopy (AFM); recombinant CNA fragment on the tip at low density by a PEG-benzaldehyde linker, Cn on the substrate by NHS chemistry; PBS, 20°C; contact time 250 ms, maximum applied force 250 pN, approach and retraction speeds 1,000 nm s^-1 (retraction speed varied for the loading-rate plot and koff); 8 tips and substrates; conditions: both partners purified

| Molecule | adhesion force (single cell) [1] [pN] | fraction of force curves with adhesion force peaks [1] [%] | strong adhesion force (single cell), cell no. 1 [1] [pN] | strong adhesion force (single cell), cell no. 2 [1] [pN] | strong adhesion force (single cell), cell no. 3 [1] [pN] | strong adhesion force (single cell), cell no. 4 [1] [pN] | strong adhesion force (single cell), cell no. 5 [1] [pN] | strong adhesion force (single cell), cell no. 6 [1] [pN] | strong adhesion forces (single cell) [1] [pN] | weak adhesion forces (single cell) [1] [pN] | strong adhesion forces (single molecule) [2] [pN] | weak adhesion forces (single molecule) [2] [pN] | koff [3] [s⁻¹] | koff [4] [s⁻¹] |
| --- | --- | --- | --- | --- | --- | --- | --- | --- | --- | --- | --- | --- | --- | --- |
| full-length collagen-binding protein Cna expressed on living Staphylococcus aureus strain Phillips cells (natural protein) | 100 to 5000 | 54 to 89 | 2120 | 3380 | 2500 | 3250 | 1890 | 3620 | 3160 | 670 | 1170 | 239 | – | – |
| B1 | – | – | – | – | – | – | – | – | – | – | – | – | 0.0005 | 0.0002 |
